Molecular target: GST-PSD-95 (rat, UniProt P31016 1-724)
Assay: co-IP

Chain of GST-PSD-95 (P31016 whole entry): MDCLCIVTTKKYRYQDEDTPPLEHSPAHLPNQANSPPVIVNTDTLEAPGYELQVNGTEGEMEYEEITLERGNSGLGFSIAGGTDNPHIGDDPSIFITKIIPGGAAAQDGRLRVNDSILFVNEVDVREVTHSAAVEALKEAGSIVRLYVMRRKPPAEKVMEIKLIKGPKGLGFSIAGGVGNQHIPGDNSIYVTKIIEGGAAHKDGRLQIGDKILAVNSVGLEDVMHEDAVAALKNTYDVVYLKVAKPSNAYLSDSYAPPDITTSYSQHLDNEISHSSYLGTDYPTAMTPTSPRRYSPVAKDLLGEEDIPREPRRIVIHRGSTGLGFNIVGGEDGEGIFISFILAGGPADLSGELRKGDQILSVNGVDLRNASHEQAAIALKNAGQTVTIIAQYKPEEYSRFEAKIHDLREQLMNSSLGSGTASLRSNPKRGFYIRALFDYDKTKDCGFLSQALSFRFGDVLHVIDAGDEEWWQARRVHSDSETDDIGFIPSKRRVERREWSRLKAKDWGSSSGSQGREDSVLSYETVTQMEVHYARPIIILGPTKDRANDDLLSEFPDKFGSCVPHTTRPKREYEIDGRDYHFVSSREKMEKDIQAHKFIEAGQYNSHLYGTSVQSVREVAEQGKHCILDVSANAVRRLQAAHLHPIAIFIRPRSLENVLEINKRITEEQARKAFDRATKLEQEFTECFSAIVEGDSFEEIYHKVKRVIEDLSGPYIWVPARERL

B1: GST-ILK (enzyme, rat, UniProt Q99J82 1-452, looked up)
chain: MDDIFTQCREGNAVAVRLWLDNTENDLNQGDDHGFSPLHWACREGRSAVVEMLIMRGARINVMNRGDDTPLHLAASHGHRDIVQKLLQYKADINAVNEHGNVPLHYACFWGQDQVAEDLVANGALVSICNKYGEMPVDKAKAPLRELLRERAEKMGQNLNRIPYKDTFWKGTTRTRPRNGTLNKHSGIDFKQLNFLAKLNENHSGELWKGRWQGNDIVVKVLKVRDWSTRKSRDFNEECPRLRIFSHPNVLPVLGACQAPPAPHPTLITHWMPYGSLYNVLHEGTNFVVDQSQAVKFALDMARGMAFLHTLEPLIPRHALNSRSVMIDEDMTARISMADVKFSFQCPGRMYAPAWVAPEALQKKPEDTNRRSADMWSFAVLLWELVTREVPFADLSNMEIGMKVALEGLRPTIPPGISPHVCKLMKICMNEDPAKRPKFDMIVPILEKMQDK
**Q.** Does B1 bind?
**A.** Result: binds
